This is an account of results in patent US20170138946A1 (Memorial Sloan Kettering, published 2017).

The target of the experiment is T1, Enhancer of zeste homolog 2 (EZH2) (human, UniProt Q15910 1-746, limits assumed).
T1 construct: Endogenous protein in SET2 cells
The experiment is described as follows: co-immunoprecipitation of endogenous EZH2 and BAP1 in SET2 cells with Western blot, in presence of benzonase. An excerpt:
FIG. 13A-L. BAP1 depletion leads to an increase in PRC2 component expression, increased H4K20me1 and deubiquitination of L3MBTL2. (a) Co-immunoprecipitation of endogenous EZH2 and BAP1 in SET2 cells followed by Western blot analysis (performed in presence of benzonase to inhibit interactions dependent on DNA). (b) Bap1, Ezh2 and Suz12 expression by qRT-PCR from sorted granulocyte-macrophage progenitor (GMP; Lin⁻ c-Kit⁺Sca1⁻CD34′Fcγ⁺). (c) Western blot analysis of Bap1 and Ezh2 in bone marrow cells from Bap1 KO and control mice. (d) H4K20me1 quantification from histone mass spectrometry experiments. (e) Cell viability as assessed by Cell Titer Glo viability assay and (f) Annexin V assays for SETD8 overexpression experiments in BAP1 wild-type (MSTO-211H, Meso10) and mutant cell lines H226, deletion; H2452 catalytic mutation). (g) Quantitative qPCR for SETD8 and EZH2 in BAP1 mutant cells with SETD8 overexpression. (h) Western blot analysis for SETD8 and EZH2 in a BAP1 wild-type cell line. (i) Cell Titer Glo assay in cells treated with DMSO or 5, 10, 20 μM BVT594. (j) L3MBTL2 and BAP1 expression in BAP1 wild-type (Met5a, JMN) and mutant mesothelioma cell lines (H226, H2452, H28). (k) 293T cells overexpressing Myc-His tagged ubiquitin and L3MBTL2 cDNA and varying levels of BAP1 (0, 5 μg, 2.5 μg, 1 μg). […] Statistics were calculated with Student t-test; *p<0.05, **p<0.005; ±SEM values reported. […]
(In general: Immunoblotting shows a protein as a band on a membrane.)

T1 sequence (Q15910 whole entry): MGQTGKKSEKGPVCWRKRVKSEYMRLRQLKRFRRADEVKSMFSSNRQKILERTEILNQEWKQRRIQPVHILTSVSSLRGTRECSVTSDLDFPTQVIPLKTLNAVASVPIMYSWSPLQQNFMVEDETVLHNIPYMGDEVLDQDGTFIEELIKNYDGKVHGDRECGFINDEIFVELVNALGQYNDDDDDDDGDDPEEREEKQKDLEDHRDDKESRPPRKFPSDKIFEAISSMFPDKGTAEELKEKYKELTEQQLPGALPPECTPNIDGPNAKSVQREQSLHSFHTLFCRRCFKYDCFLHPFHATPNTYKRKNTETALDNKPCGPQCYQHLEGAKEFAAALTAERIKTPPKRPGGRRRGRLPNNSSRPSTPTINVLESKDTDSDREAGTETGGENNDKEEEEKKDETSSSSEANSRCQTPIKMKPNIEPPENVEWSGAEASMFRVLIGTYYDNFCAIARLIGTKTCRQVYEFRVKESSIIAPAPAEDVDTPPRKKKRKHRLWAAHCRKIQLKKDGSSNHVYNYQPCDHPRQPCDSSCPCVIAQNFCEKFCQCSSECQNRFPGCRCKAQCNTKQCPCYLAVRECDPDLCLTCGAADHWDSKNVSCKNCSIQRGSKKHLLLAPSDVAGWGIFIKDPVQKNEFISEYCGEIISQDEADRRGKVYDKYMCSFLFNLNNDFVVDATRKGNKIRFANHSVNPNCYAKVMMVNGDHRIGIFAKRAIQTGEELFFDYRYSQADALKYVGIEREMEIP

B1: BRCA1 associated protein-1 (BAP1) (enzyme, human, UniProt Q92560 1-729, looked up)
chain: MNKGWLELESDPGLFTLLVEDFGVKGVQVEEIYDLQSKCQGPVYGFIFLFKWIEERRSRRKVSTLVDDTSVIDDDIVNNMFFAHQLIPNSCATHALLSVLLNCSSVDLGPTLSRMKDFTKGFSPESKGYAIGNAPELAKAHNSHARPEPRHLPEKQNGLSAVRTMEAFHFVSYVPITGRLFELDGLKVYPIDHGPWGEDEEWTDKARRVIMERIGLATAGEPYHDIRFNLMAVVPDRRIKYEARLHVLKVNRQTVLEALQQLIRVTQPELIQTHKSQESQLPEESKSASNKSPLVLEANRAPAASEGNHTDGAEEAAGSCAQAPSHSPPNKPKLVVKPPGSSLNGVHPNPTPIVQRLPAFLDNHNYAKSPMQEEEDLAAGVGRSRVPVRPPQQYSDDEDDYEDDEEDDVQNTNSALRYKGKGTGKPGALSGSADGQLSVLQPNTINVLAEKLKESQKDLSIPLSIKTSSGAGSPAVAVPTHSQPSPTPSNESTDTASEIGSAFNSPLRSPIRSANPTRPSSPVTSHISKVLFGEDDSLLRVDCIRYNRAVRDLGPVISTGLLHLAEDGVLSPLALTEGGKGSSPSIRPIQGSQGSSSPVEKEVVEATDSREKTGMVRPGEPLSGEKYSPKELLALLKCVEAEIANYEACLKEEVEKRKKFKIDDQRRTHNYDEFICTFISMLAQEGMLANLVEQNISVRRRQGVSIGRLHKQRKPDRRKRSRPYKAKRQ
notes: Immunoprecipitated from cell lysates; It is endogenous in the human leukemia line SET2
For the molecule B1, the binding result was “no binding”.
